# Molecular target: T1, human CD47 (human, UniProt Q08722 19-139)
# T1 construct: extracellular domain; also called CD47 ECD
# Assay: SPR as in Example 1
# T1 sequence (Q08722 19-139 limits assumed): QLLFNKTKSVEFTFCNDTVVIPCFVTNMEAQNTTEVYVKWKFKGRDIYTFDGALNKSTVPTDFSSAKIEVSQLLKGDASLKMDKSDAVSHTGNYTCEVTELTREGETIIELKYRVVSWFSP
row,Binder,Kd
1,"SIRP-α D1 variant fused to Fc variant, SEQ ID NO: 110 (Fc fusion) EEELQVIQPDKSVLVAAGETATLRCTITSLFPVGPIQWFRGAGPGRELIYNQREGPFPRVTTVSDLTKRNNMDFSIRIGAITPADAGTYYCVKFRKGSPDDVEFKSGAGTELSVRAKPSVECPPCPAPPVAGPSVFLFPPKPKDTLMISRTPEVTCVVVDVSHEDPEVQFNWYVDGVEVHNAKTKPREEQFASTFRVVSVLTVVHQDWLNGKEYKCKVSNKGLPSSIEKTISKTKGQPREPQVYTLPPSREEMTKNQVSLTCLVKGFYPSDIAVEWESNGQPENNYKTTPPMLDSDGSFFLYSKLTVDKSRWQQGNVFSCSVMHEALHNHYTQKSLSLSPGK",0.653 nM
2,"SIRP-α D1 variant fused to Fc variant, SEQ ID NO: 106 (Fc fusion) EEELQVIQPDKSVLVAAGETATLRCTATSLFPVGPIQWFRGAGPGRELIYNQRQGPFPRVTTVSDLTKRNNMDFSIRIGNITPADAGTYYCVKFRKGSPDDVEFKSGAGTELSVRAKPSVECPPCPAPPVAGPSVFLFPPKPKDTLMISRTPEVTCVVVDVSHEDPEVQFNWYVDGVEVHNAKTKPREEQFASTFRVVSVLTVVHQDWLNGKEYKCKVSNKGLPSSIEKTISKTKGQPREPQVYTLPPSREEMTKNQVSLTCLVKGFYPSDIAVEWESNGQPENNYKTTPPMLDSDGSFFLYSKLTVDKSRWQQGNVFSCSVMHEALHNHYTQKSLSLSPGK",0.811 nM
3,"SIRP-α D1 variant fused to Fc variant, SEQ ID NO: 109 (Fc fusion) EEELQVIQPDKSVLVAAGETATLRCTATSLFPVGPIQWFRGAGPGRELIYNQREGPFPRVTTVSDLTKRNNMDFSIRIGAITPADAGTYYCVKFRKGSPDDVEFKSGAGTELSVRAKPSVECPPCPAPPVAGPSVFLFPPKPKDTLMISRTPEVTCVVVDVSHEDPEVQFNWYVDGVEVHNAKTKPREEQFASTFRVVSVLTVVHQDWLNGKEYKCKVSNKGLPSSIEKTISKTKGQPREPQVYTLPPSREEMTKNQVSLTCLVKGFYPSDIAVEWESNGQPENNYKTTPPMLDSDGSFFLYSKLTVDKSRWQQGNVFSCSVMHEALHNHYTQKSLSLSPGK",2.15 nM
4,"SIRP-α D1 variant fused to Fc variant, SEQ ID NO: 101 (Fc fusion) EEELQVIQPDKSVLVAAGETATLRCTITSLFPVGPIQWFRGAGPGRELIYNQREGPFPRVTTVSDLTKRNNMDFSIRIGAITPADAGTYYCVKFRKGSPDDVEFKSGAGTELSVRAKPSDKTHTCPPCPAPEAAGAPSVFLFPPKPKDTLMISRTPEVTCVVVDVSHEDPEVKFNWYVDGVEVHNAKTKPREEQYASTYRVVSVLTVLHQDWLNGKEYKCKVSNKALPAPIEKTISKAKGQPREPQVYTLPPSREEMTKNQVSLTCLVKGFYPSDIAVEWESNGQPENNYKTTPPVLDSDGSFFLYSKLTVDKSRWQQGNVFSCSVMHEALHNHYTQKSLSLSPGK",0.89 nM
5,"SIRP-α D1 variant fused to Fc variant, SEQ ID NO: 114 (Fc fusion) EEELQIIQPDKSVLVAAGETATLRCTITSLFPVGPIQWFRGAGPGRVLIYNQRQGPFPRVTTVSDTTKRNNMDFSIRIGNITPADAGTYYCIKFRKGSPDDVEFKSGAGTELSVRAKPSERKSSVECPPCPAPPVAGPSVFLFPPKPKDTLMISRTPEVTCVVVDVSHEDPEVQFNWYVDGVEVHNAKTKPREEQFASTFRVVSVLTVVHQDWLNGKEYKCKVSNKGLPSSIEKTISKTKGQPREPQVYTLPPSREEMTKNQVSLTCLVKGFYPSDIAVEWESNGQPENNYKTTPPMLDSDGSFFLYSKLTVDKSRWQQGNVFSCSVMHEALHNHYTQKSLSLSPGK",0.0343 nM

# Next, values leading:
row,Kd,Binder
1,0.478 nM,"SIRP-α D1 variant fused to Fc variant, SEQ ID NO: 108 (Fc fusion) EEELQVIQPDKSVLVAAGETATLRCTATSLFPVGPIQWFRGAGPGRELIYNQRQGPFPRVTTVSDLTKRNNMDFSIRIGAITPADAGTYYCVKFRKGSPDDVEFKSGAGTELSVRAKPSVECPPCPAPPVAGPSVFLFPPKPKDTLMISRTPEVTCVVVDVSHEDPEVQFNWYVDGVEVHNAKTKPREEQFASTFRVVSVLTVVHQDWLNGKEYKCKVSNKGLPSSIEKTISKTKGQPREPQVYTLPPSREEMTKNQVSLTCLVKGFYPSDIAVEWESNGQPENNYKTTPPMLDSDGSFFLYSKLTVDKSRWQQGNVFSCSVMHEALHNHYTQKSLSLSPGK"
2,0.315 nM,"SIRP-α D1 variant fused to Fc variant, SEQ ID NO: 111 (Fc fusion) EEELQIIQPDKSVLVAAGETATLRCTITSLFPVGPIQWFRGAGPGRELIYNQREGPFPRVTTVSDLTKRNNMDFSIRIGAITPADAGTYYCVKFRKGSPDDVEFKSGAGTELSVRAKPSVECPPCPAPPVAGPSVFLFPPKPKDTLMISRTPEVTCVVVDVSHEDPEVQFNWYVDGVEVHNAKTKPREEQFASTFRVVSVLTVVHQDWLNGKEYKCKVSNKGLPSSIEKTISKTKGQPREPQVYTLPPSREEMTKNQVSLTCLVKGFYPSDIAVEWESNGQPENNYKTTPPMLDSDGSFFLYSKLTVDKSRWQQGNVFSCSVMHEALHNHYTQKSLSLSPGK"
3,3.46 nM,"SIRP-α D1 variant fused to Fc variant, SEQ ID NO: 135 (Fc fusion) EEELQVIQPDKSVLVAAGETATLRCTATSLFPVGPIQWFRGAGPGRELIYNQREGPFPRVTTVSDLTKRNNMDFSIRIGAITPADAGTYYCVKFRKGSPDDVEFKSGAGTELSVRAKPSDKTHTCPPCPAPEAAGAPSVFLFPPKPKDTLMISRTPEVTCVVVDVSHEDPEVKFNWYVDGVEVHNAKTKPREEQYASTYRVVSVLTVLHQDWLNGKEYKCKVSNKALPAPIEKTISKAKGQPREPQVYTLPPSREEMTKNQVSLTCLVKGFYPSDIAVEWESNGQPENNYKTTPPVLDSDGSFFLYSKLTVDKSRWQQGNVFSCSVMHEALHNHYTQKSLSLSPG"
4,0.379 nM,"SIRP-α D1 variant fused to Fc variant, SEQ ID NO: 102 (Fc fusion) EEELQIIQPDKSVLVAAGETATLRCTITSLFPVGPIQWFRGAGPGRELIYNQREGPFPRVTTVSDLTKRNNMDFSIRIGAITPADAGTYYCVKFRKGSPDDVEFKSGAGTELSVRAKPSDKTHTCPPCPAPEAAGAPSVFLFPPKPKDTLMISRTPEVTCVVVDVSHEDPEVKFNWYVDGVEVHNAKTKPREEQYASTYRVVSVLTVLHQDWLNGKEYKCKVSNKALPAPIEKTISKAKGQPREPQVYTLPPSREEMTKNQVSLTCLVKGFYPSDIAVEWESNGQPENNYKTTPPVLDSDGSFFLYSKLTVDKSRWQQGNVFSCSVMHEALHNHYTQKSLSLSPGK"
5,0.895 nM,"SIRP-α D1 variant fused to Fc variant, SEQ ID NO: 99 (Fc fusion) EEELQVIQPDKSVLVAAGETATLRCTATSLFPVGPIQWFRGAGPGRELIYNQRQGPFPRVTTVSDLTKRNNMDFSIRIGAITPADAGTYYCVKFRKGSPDDVEFKSGAGTELSVRAKPSDKTHTCPPCPAPEAAGAPSVFLFPPKPKDTLMISRTPEVTCVVVDVSHEDPEVKFNWYVDGVEVHNAKTKPREEQYASTYRVVSVLTVLHQDWLNGKEYKCKVSNKALPAPIEKTISKAKGQPREPQVYTLPPSREEMTKNQVSLTCLVKGFYPSDIAVEWESNGQPENNYKTTPPVLDSDGSFFLYSKLTVDKSRWQQGNVFSCSVMHEALHNHYTQKSLSLSPGK"
6,0.498 nM,"SIRP-α D1 variant fused to Fc variant, SEQ ID NO: 115 (Fc fusion) EEELQVIQPDKSVLVAAGETATLRCTATSLFPVGPIQWFRGAGPGRELIYNQRQGPFPRVTTVSDLTKRNNMDFSIRIGNITPADAGTYYCVKFRKGSPDDVEFKSGAGTELSVRAKPSERKSSVECPPCPAPPVAGPSVFLFPPKPKDTLMISRTPEVTCVVVDVSHEDPEVQFNWYVDGVEVHNAKTKPREEQFASTFRVVSVLTVVHQDWLNGKEYKCKVSNKGLPSSIEKTISKTKGQPREPQVYTLPPSREEMTKNQVSLTCLVKGFYPSDIAVEWESNGQPENNYKTTPPMLDSDGSFFLYSKLTVDKSRWQQGNVFSCSVMHEALHNHYTQKSLSLSPGK"

# Molecular target: T1, human CD47
# Assay: SPR, 25 C, 1:1 Langmuir fit
row,Binder,Kd
1,"SIRP-α D1 variant polypeptide of SEQ ID NO: 66 (receptor, engineered SIRP-α D1 domain) EEELQVIQPDKSVSVAAGESAILHCTITSLFPVGPIQWFRGAGPARELIYNQREGPFPRVTTVSESTKRENMDFSISISNITPADAGTYYCVKFRKGSPDTEFKSGAGTELSVRAKPS",0.47 nM
2,"SIRP-α D1 variant polypeptide of SEQ ID NO: 69 (receptor, engineered SIRP-α D1 domain) EEELQVIQPDKSVSVAAGESAILHCTITSLIPVGPIQWFRGAGPARELIYNQREGPFPRVTTVSESTKRENMDFSISISNITPADAGTYYCVKFRKGSPDTEFKSGAGTELSVRAKPS",2.4 nM
3,"SIRP-α D1 variant polypeptide of SEQ ID NO: 78 (receptor, engineered SIRP-α D1 domain) EEELQIIQPDKSVLVAAGETATLRCTITSLFPVGPIQWFRGAGPGRVLIYNQRQGPFPRVTTVSDTTKRNNMDFSIRIGAITPADAGTYYCIKFRKGSPDDVEFKSGAGTELSVRAKPS",0.0144 nM
4,"SIRP-α D1 variant polypeptide of SEQ ID NO: 79 (receptor, engineered SIRP-α D1 domain) EEELQVIQPDKSVLVAAGETATLRCTATSLFPVGPIQWFRGAGPGRELIYNQRQGPFPRVTTVSDLTKRNNMDFSIRIGAITPADAGTYYCVKFRKGSPDDVEFKSGAGTELSVRAKPS",0.217 nM

# Next, values leading:
row,Kd,Binder
1,5.45 nM,"SIRP-α D1 variant polypeptide of SEQ ID NO: 64 (receptor, engineered SIRP-α D1 domain) EEELQVIQPDKSVSVAAGESAILHCTVTSLIPVGPIQWFRGAGPARELIYNQREGPFPRVTTVSESTKRENMDFSISISNITPADAGTYYCVKFRKGSPDTEFKSGAGTELSVRAKPS"
2,0.206 nM,"SIRP-α D1 variant polypeptide of SEQ ID NO: 67 (receptor, engineered SIRP-α D1 domain) EEELQVIQPDKSVSVAAGESAILHCTITSLFPVGPIQWFRGAGPARELIYNQREGPFPRVTTVSETTKRENMDFSISISNITPADAGTYYCVKFRKGSPDTEFKSGAGTELSVRAKPS"
3,0.8 nM,"SIRP-α D1 variant polypeptide of SEQ ID NO: 65 (receptor, engineered SIRP-α D1 domain) EEELQVIQPDKSVSVAAGESAILHCTVTSLFPVGPIQWFRGAGPARELIYNQREGPFPRVTTVSESTKRENMDFSISISNITPADAGTYYCVKFRKGSPDTEFKSGAGTELSVRAKPS"
4,0.251 nM,"SIRP-α D1 variant polypeptide of SEQ ID NO: 68 (receptor, engineered SIRP-α D1 domain) EEELQIIQPDKSVSVAAGESAILHCTITSLFPVGPIQWFRGAGPARELIYNQREGPFPRVTTVSESTKRENMDFSISISNITPADAGTYYCVKFRKGSPDTEFKSGAGTELSVRAKPS"
5,0.0472 nM,"SIRP-α D1 variant polypeptide of SEQ ID NO: 80 (receptor, engineered SIRP-α D1 domain) EEELQIIQPDKSVLVAAGETATLRCTITSLFPVGPIQWFRGAGPGRVLIYNQREGPFPRVTTVSDTTKRNNMDFSIRIGAITPADAGTYYCIKFRKGSPDDVEFKSGAGTELSVRAKPS"
